Measurements published in patent publication US20120214165A1.

Target: Epithelial cell adhesion molecule (EpCAM) (human) (UniProt P16422)
Experiment: cell-based or functional assay

UniProt P16422, sequence (P16422 24-314 M115T limits assumed): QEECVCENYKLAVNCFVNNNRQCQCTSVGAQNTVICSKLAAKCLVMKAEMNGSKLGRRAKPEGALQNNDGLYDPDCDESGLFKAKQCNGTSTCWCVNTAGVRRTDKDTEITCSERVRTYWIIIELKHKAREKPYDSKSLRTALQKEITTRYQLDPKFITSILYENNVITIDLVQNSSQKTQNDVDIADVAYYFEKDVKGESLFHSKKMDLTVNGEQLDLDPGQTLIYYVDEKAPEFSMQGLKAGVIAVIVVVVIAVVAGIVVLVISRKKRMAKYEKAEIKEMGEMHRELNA

Work on “VB4-845 immunotoxin (from UniProt P11439 277-633)” yielded an IC50 of inhibition of proliferation, MTT based cell viability assay, ARO cells of 0.7 pM and an IC50 of inhibition of proliferation, MTT based cell viability assay, WRO cells of 1 pM.
